Consider one substance from patent US20100041032A1.

The assay addresses Nodal, endogenous in mouse F9 Cripto-/- cells (mouse) (UniProt P43021). The assay can be described thus: cell-based or functional assay.
UniProt P43021, sequence (P43021 245-354 limits assumed): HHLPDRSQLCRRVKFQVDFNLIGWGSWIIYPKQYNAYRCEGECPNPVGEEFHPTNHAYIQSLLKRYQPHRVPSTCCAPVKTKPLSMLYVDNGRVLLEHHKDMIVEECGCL

Substance “human Cripto-1 (protein encoded by TDGF1) (from UniProt P13385 31-150)” had a luciferase activity, FAST transcription factor dependent (n2)7-luciferase reporter assay in F9 Cripto-/- cells, fold increase compared with control of 4 to 6 fold.
